For orientation: Ki means a measure of affinity in units of concentration, obtained from inhibition or displacement.

The series addresses neutrophil elastase (HNE) (Homo sapiens, UniProt P08246 P08246:30-267). Kind of series: inhibition; blended ligand (end not specified for Ki); chromogenic substrate, 10 nM elastase, 2 mM MgCl2, 150 mM NaCl, 25 C; >50% inhibition at 70 nM for 3' conjugate. The text has this: The assay for elastase inhibition is based on the use of a chromogenic tetrapeptide substrate. […] The rate of p-nitroanilide generation in the absence of inhibitor was used as the control.

Sequence of neutrophil elastase (HNE) (P08246 30-267, one chain of several): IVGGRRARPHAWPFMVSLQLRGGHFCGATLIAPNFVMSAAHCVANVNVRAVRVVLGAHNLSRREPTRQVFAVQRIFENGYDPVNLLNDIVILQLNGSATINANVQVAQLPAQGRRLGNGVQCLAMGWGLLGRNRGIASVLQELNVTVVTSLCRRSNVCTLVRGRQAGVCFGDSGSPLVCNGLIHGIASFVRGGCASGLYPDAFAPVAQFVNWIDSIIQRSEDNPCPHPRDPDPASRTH

B1: DNA-17 3'-end peptide conjugate (ssDNA)
DNA: TAGCGATACTGCGTGGGTTGGGGCGGGTAGGGCCAGCAGTCTCGTGCGGTACTTGAGCA
modifications: 3' four 18-atom ethylene glycol spacers and thiol coupled to N-methoxysuccinyl-Ala-Ala-Pro-Val-chloromethyl ketone
In turn, B1 had a Ki of 0.03 µM. This counts as double-digit nanomolar.

(Values after patent publication US5683867, “Systematic evolution of ligands by exponential enrichment: blended SELEX” (NeXstar Pharmaceuticals, Inc.).)
